Measured values published in patent US20240309050A1.

Assays:
[1] = molecular target: gHgL antigen protein of EB virus (EB virus (M81 strain)); experiment: BLI (Octet), AMMO1 on protein A sensor, antigen (row label gHgL) in solution 3.125-200 nM, 1:1 fit
[2] = molecular target: gHgL-I53-50 NP self-assembled nanoparticle (EB virus (M81 strain) for the gH and gL parts); experiment: BLI (Octet), AMMO1 on protein A sensor, antigen (row label gHgL-I53-50 NP) in solution 3.125-200 nM, 1:1 fit
[3] = molecular target: gHgL-I53-50A1 subunit (EB virus (M81 strain) for the gH and gL parts); experiment: BLI (Octet), AMMO1 on protein A sensor, antigen (row label gHgL-I53-50A1) in solution 3.125-200 nM, 1:1 fit

neutralizing antibody AMMO1
Kd [1]: 0.432 nM | Kd [2]: 0.0339 nM | Kd [3]: 0.242 nM
